In patent publication US7262271:

System: Antisera against the PAS1 peptides

Substance	Arg-specific proteolytic activity	Lys-specific proteolytic activity
P. gingivalis Arg-specific proteinase	Antisera against the PAS1 peptides inhibited both Arg- and Lys-specific proteolytic activity	
P. gingivalis Lys-specific proteinase		Antisera against the PAS1 peptides inhibited both Arg- and Lys-specific proteolytic activity
